Source: article PMC9178793, “A Direct Assay for Measuring the Activity and Inhibition of Coactivator-Associated Arginine Methyltransferase 1” (Biochemistry, 2022)

Key:
[1] = substrate: CSCC[C@H](NC(=O)[C@@H](NC(=O)[C@H](CO)NC(=O)[C@H](Cc1ccccc1)NC(=O)[C@@H]1CCCN1C(=O)[C@@H]1CCCN1C(=O)[C@H](CCCNC(=N)N)NC(=O)[C@@H]1CCCN1C(=O)[C@H](C)NC(=O)[C@H](C)NC(=O)[C@@H]1CCCN1C(C)=O)[C@@H](C)O)C(N)=O; assay: kinetic analysis of CARM1 substrates (KM determination, MRM LC-MS enzymatic activity assay); assay type: biochemical, Mus musculus; details: other: fixed 100 μM AdoMet, PABP1 456–466 0.05–100 μM
Text: (§1) The Mus musculus CARM1 (mmCARM1) gene sequence corresponding to the PRMT core (residues 130–497, mmCARM1_130–497) were amplified by PCR from the original GST-CARM1 construct.[19] The sequences were cloned in the pDONR207 (Invitrogen) vector using a BP reaction (Gateway Cloning, Life Technologies). The positive clones were confirmed by sequencing (GATC). The sequences were subcloned in a pDEST20 vector using an LR reaction. The resulting recombinant protein is harboring an amino-terminal glutathione S-transferase (GST) tag followed by a Tobacco etch virus (TEV) protease cleavage site. DH10Bac competent cells containing the baculovirus genome were transformed with the pDEST20-CARM1 plasmids and plated onto LB agar media containing 15 mg·mL^–1 tetracycline, 7 mg·mL^–1 gentamicin, 50 mg·mL^–1 kanamycin, 25 mg·mL^–1 X-Gal, and 40 mg·mL^–1 IPTG. Bacmid DNA purified from recombination-positive white colonies was transfected into Sf9 cells using the Lipofectin reagent (Invitrogen). Viruses were harvested 10 days after transfection. […]
(§2) Enzyme activity assays were performed with CARM1 (286 nM corresponding to 11.68 ng/μL) in 20 mM Tris buffer (pH 8) containing 50 mM Tris NaCl, 1 mM EDTA, 3 mM MgCl2, 0.1 mg/mL BSA, and 1 mM dithiothreitol (DTT). […] The supernatant (60 μL) was transferred to a new 96-well plate and analyzed. […]

[2] = substrate: C[S+](CC[C@H](N)C(=O)[O-])C[C@H]1O[C@@H](n2cnc3c(N)ncnc32)[C@H](O)[C@@H]1O; assay: as above; assay type: biochemical, Mus musculus; details: other: fixed 100 μM PABP1, AdoMet 0.05–100 μM
Text: as §1, §2

B1: CARM1 (Mus musculus) (protein)
chain: GHTLERSVFSERTEESSAVQYFQFYGYLSQQQNMMQDYVRTGTYQRAILQNHTDFKDKIVLDVGCGSGILSFFAAQAGARKIYAVEASTMAQHAEVLVKSNNLTDRIVVIPGKVEEVSLPEQVDIIISEPMGYMLFNERMLESYLHAKKYLKPSGNMFPTIGDVHLAPFTDEQLYMEQFTKANFWYQPSFHGVDLSALRGAAVDEYFRQPVVDTFDIRILMAKSVKYTVNFLEAKEGDLHRIEIPFKFHMLHSGLVHGLAFWFDVAFIGSIMTVWLSTAPTEPLTHWYQVRCLFQSPLFAKAGDTLSGTCLLIANKRQSYDISIVAQVDQTGSKSSNLLDLKNPFFRYTGTTPSPPPGSHYTSPSENM
notes: corresponding to the PRMT core (residues 130–497, mmCARM1_130–497) were amplified by PCR; GST (followed by TEV protease cleavage site) (N, cleaved yes); made in house; host or cells: Sf9 insect cells (baculovirus)
Km [1]: 12.03 ± 2.28 µM | Km [2]: 5.46 ± 0.01 µM
